Experimental data from the DeepSol protein solubility set.

Experiment: soluble on expression in E. coli; label from the status in PepcDB or PDB records

Soluble on expression in E. coli, not soluble:
MGSDKIHHHHHHMKRARAATNLPETRQPRSAHFAQAGQRWSDDVDASTTGVSKHDMCFAVASRESVRPYVLPRNKNDMADAEAICEAVTRPNMRFVAVKTAAQQSVLMLHRCRALLVRQRTMLANAIRAHLAEFGIVMPQGIRTLLTALIAPKDEVNDLPHLVRVALAPMAANLIELGQRIKGLEIEIAREHRGNETSRRLETIPGFGVMTSTAMAATVADPTAFKSGREFAAWLGLTPRESSSGGKQRLGGITKMGDGYLRTLLVVGATAVIRFAREEGSAKTAWIRKLMEKKPAKVVAVALANKMARIAWPLMTRGEVYRVIPA
MGSDKIHHHHHHMKRGLNLDQWVTWPGEDQWGDAKTILPYPEWRKFLGDDDLRALKGAGFDFLRMPVDPSPFLSDQTAALRDDLYASVLDSVRMINRAGLKVIVDMHLIPAGGSRKIGMAQVMDDPRTFDRYLDMVRKMARTLAGEDPEKVAFEPMNEPIVDCDSDGTSLWPDRQRELFAAARSSATKLTLVLTGACYSAASSLEKIDPKAISDDNVIWTFHSYDPFLLTHQGATWAGDFIPYVTGLPYPLNAVPKAQLDATLDIIRARIKAEAPWTRQSGLLAYLDEQVASMDSPDKLLGLMDAPFKKVEAWAKANGVKPENITLGEFGMIRQEYGNAYVMPAQYRAAYVRDMIARAEAHGFSWSVWSYGGAFGIVDAFNGDKGEPDVMDVIRSLH
MGSDKIHHHHHHMKRKITPELSSKDWKEFCSRFHFDNDKLPLIRAIYTAMLPLVDAFAYYSIKQDLPGVSLAHYAYGLVTLGNGVDELSELYLNHEQLEEAYIADCLSLMLLSNAYEQFAKAVEEESSLYAIELSFLGDEYPLELLPEIFEHVSPDGIHLTGSNMLKPLKTAALIIKLDSQKRKNIKELCNTCANCKNLSCPSRKAPGPKLPHTYGAMQIFNIRH
MGSDKIHHHHHHMKRPPKKPATDRSFVVALSRGLEVLRAFGPNDGLLGNQELAARTKLPKPTISRLTYTLTKLGYLTQVPRFEKYQLAPAAMSLGYAALANLGVRHLSQPYRDELMQQTGGAVAVGARDRISMIYVGQARSSLTVGVQLDVGSRIPIATTAMGRAYLCALQSEERAVLMKEMREYYGSRWPRIKEGIERSEEMVAKHGFAISVGEWQDDVHAAGVALTLNDGTGPYAFNCGAPAFRFTEERLINDIGPRLVAMVRKIEAALGGVAAPQPRKSDNKRTKGGKVARVVEGIR
MGSDKIHHHHHHMKSFVIEDEFWSLFPNAKIGVVICHSIDNSIKDENQYKDMISNSEEEALSYLKNEEFSSNEVIKVWREAFQKFKTKKGARSSIEALLKRVHKGNHIGTINPLVDIYNSISLRYAMPCGGEDIDAFAGDIRLTKAVGNESFVTLGTDKNEPPYEGEIVYKDNEGAICRCFNWRESVRTMLTENTKNAFLCIELIDETRVKEFEDALDTLAKTVQDNLGGNCKISTLDINNKSVVID
MGSDKIHHHHHHMKSHIGLIGLAVMGQNLALNIARKGYKVSVYNRTAQRTEEFVKNRVTNEEIEPHYDIESFVKSLERPRKIILMVKAGKPVDDTISQLLPHLEPGDLIIDGGNSHYMDTERRFKELSEKGILFLGMGVSGGEYGALHGPSLMPGGSREAYNLVEEILLEIAAKTEDGPCCTYVGERSAGHFVKMVHNGIEYAIMQAIAEVYHIMRDVLSLSSEEMSSIFEEWNRGELSSFLVEITYKILRKKDEETGKPMVDVILDKAEQKGTGKWTSQAALDLGIPTPSINLAVVERVISHFKDIRTRLSKLYNKRRSATQGSEEFLRDLRNSLFFAMFMAFSQGMWLIAEASKEFGYGVSLSEVLRIWKGGCIIRAKLIDTLRRYISNENAYLLENEEVMNLLKGKIDSLKNILKASIENEIPVPVLSSSYNYFMSLTEERLPANLIQAQRDFFGAHTFERVDREGVFHINWEEGEIG
MGSDKIHHHHHHMKSIIHSTENNNFYLYDTQRILSMLIHPELKKIHEKSTDINIDAYYLKKYSYLVNHGFFGEAKPFEFKANISENSIKENITQTKVIVFEITDYCNLKCKYCSLGDLYNFSKKESKNINIKYALNFLRYIFNVKHKKTKLTISFFGGEPLVNFPAIQQIIEEAKLLNKNKKLDLMFNMTTNATLIHKYIDFIVENNIELLISFDGNEKAHSYRTYASNNKNSFHDVLMNTDMIKLKHPSYFDKYVNFNAVLNNRNSIKGIYEFIYNRYGKIPRISQLSSDHINLNKKNIFDDIFHSRKISEKEFQKEGSDVLPIVSNRLIPFNESKKFLKHYSLNLYLSNTLYLLYDLIDSFPTGTCLPFQTRIFLNTHNNLLPCEKVSYKNFLGKVNDHVFINIPEIVQRYNSYYVHCKKVCQYCYGGRACSTCLLSLDNLDQLGVEEFVCPDFQNQKTFEDKLNRIFSYLEKCPSEFFQIINHLITE
MGSDKIHHHHHHMKTFLVCALEPSANLHLKEVLKAYKKDFGEFELHGIYDESLCKEFDLNSKPLYSSHEFSAMGFIEVLPLIFKAKKAIKELANLSFTQKINGILCIDSPAFNIPFAKALKKAGSKIPRIYYILPQVWAWKKGRIPIIESHFDILASILPFDNQFFNKSTYIGHPLLDEIKEFKNQEDINHTFSKKDDEKTIAFLPGSRRSEIRRLMPIFKELSQKFKGKKILCVPSFNLEKLEVYGDISEFKIESNTPKVLKKADFAFICSGTATLEAALVGTPFVLAYKAKAIDIFIAKLFVKLKHIGLANIFCDFAGKEALNPEFLQDKVNVLNLYEAYNKYDYKAFFAKVDFLKEYLQFGSAKNLAKILNEI
MGSDKIHHHHHHMKTVRIETFGCKVNQYESEYMAEQLEKAGYVVLPDGNAAYYIVNSCAVTKEVEKKVKRLIKSIRNRNKNAKIILTGCFAQLSPDEAKNLPVDMVLGIDEKKHIVDHINSLNGKQQVVVSEPGRPVYEKVKGSFEDRTRSYIKVEDGCDNTCTYCAIRLARGTRIRSKPLEIFKEEFAEMVMKGYKEIVITGVNLGKYGKDMGSSLAELLKVIEKVPGDYRVRLSSINVEDVNDEIVKAFKRNPRLCPHLHISVQSGSDDVLKRMGRKYKISDFMRVVDKLRSIDPDFSITTDIIVGFPGETDADFQRTLELVEKVEFSRVHIFRFSPRPGTPASRMEGGVPESKKKERLDVLKEKAKDVSIRYRKRIIGKERKVLAEWYVMKGVLSGYDEYYVKHEFVGNRVGEFHSVRVKSLSEEGVISCRADMVEGKVPARG
MGSDKIHHHHHHMKVLLTRPEGRNQQMADALTQLGIGYHLCPLLEITPSNTPPKASFFSADKLVFISANAVYFAANNLNNHFPMHCEYFAVGEATQMALAEYQVVSQSAPSSQQDSEGLLSLSQLQDVELQKITIVRGEGGRETLAQTLSERGANVDYWQVYQRSKPALDPKSVCQQWQDLGIDTLVLTSGEALANLMELVPKELFAWLRSCHMIVPSHRVQVQAISQGFHRVSNANGASTQAILTALAL
MGSDKIHHHHHHMKVLQYFENPGLISRSGIGHAQRLQQEELSYTDIVLDTSPFSKDYDLIDVNTYGPKSLAMVAKARLQNRKVVYHAHSTYEDFRNSFIGSNFLSKPFKKHLIKAYRQADLIITPTPYAKSLLRSYGLKQPIVPISNGVRVSSYRRNKSKIIKFRQFLNLKENDKRKIIISVGLYFQRKGIMDFVELARRNPEHLFVWFGYTDLRIIPKKIRETVKKDHPDNCVFAGYITGDVLQGAYSGADLFLYPSYEETEGIVVLEALASSQKVLVRDIPVYNDWLHDGFDCYKASNLDEFDKRLNEILAGKVKNVSKAGHEVALKRDVSLIGPQLKKAYEEALSLPSQESR
MGSDKIHHHHHHMKVNTALGILAGKSSQFILKKLGRGTTLPGKIALKFDKHILDSLAKDYEVVVITGTNGKTLTTALTVGILQEAFGEITTNTSGANMITGITATFLSAKKNKKGKKIAVLEIDEASLARVTDFIKPSLIVFTNIFRDQMDRYGEIYTTYQMILDGAAKAPQATILANGDSPLFNSTNVINPVKYYGFATEEHEPRLAHYNTEGVLCPHCHQIIQYKLNTYANLGSYICNNCGFCRPELDYKLTDLKEITNTSSTFAIDGQDYKINIGGLYNIYNALAAVSVAAFFGVTPEKIKAGFDKSKAVFGRQETFKLGDKDCTLVLIKNPVGATQAIEMMKLAPYDFSLSVLLNANYADGIDTSWIWDADFEQITQMDIPQVFAGGVRSSEIARRLRVTGYPENQITETPKLEDIMALIEQSSSQHAYILATYTAMLEFRDLLAQRQAVGKEMK
MGSDKIHHHHHHMKVVKFGGSSLATGNNVNKALNIIKNDSSRQVIVVSAPGKRTDDDIKVTDLLITYAYTSLRSNNYDDTVEKIFRRYELIAQYFDLPESDLTKIKRLLLTLPTYDYPNADYRMATFKAHGERLNAILIAKILNHQGIKTRYLEPKDVGLIVTGTPNNAEVNPETYVNLKRINLKNNEKIIFPGFYGITPSGHIATFSRGGSDITGAILARGFDAELYENFTDVDAIFSANPNIVTNPAPIKKMTYQEMRELSYAGFSVFHDEALIPAIQGEIPVNVKNTNDPEKPGTLIVPEDGFIPKHTITGIAGGKNFAALYLRKYMLNKGAGFTLKLMEIFDRHHVSYEHMPSGIDDLTIIFKKDALSDQLIDVICNEIQTSLNPDQMQWIDDYAITMVVGEGMKDKLTLCASILYPLGEKNISIQMINQGASQISIMIGTRRQDEEEVIKTIYQNFIENR
MGSDKIHHHHHHMKWEEKRDMVKIATWYYHYGWTQAQIAKKIGISRSIISKTLQRAKDLGIVEIFIKDETYYTVDLEQKLEEKFGLEEAIVVATHDMSEEEALNFLAKEAAYTLSKRIAKVKTLGISWGKTIRKFANEFPFIPHKDLTIIPLIGGMGSSDIDLHSNQICYDLKKKMKCHSKYLYAPALVEDTEMKTDLSKNKYISEVLEEGKTVDMAIVGVSSPYNHSTMEEIGYINSEDIEELRYKDVVGDINSRFFTADGKEAKTEINTHVIGLSLEELKNIPTVVALANGLQKKEALVAALNAGLIDVIVITDRMAEYILQKND
MGSDKIHHHHHHMKYYFAPLEGITGYIYRNAYEKFFGGIDKYFTPFIVPTSSKSLTSRELKDVLPENNKVTFLVPQILTNDANKFIFTTEKLMNLGYSEVNLNLGCPSGTVVSKGRGAGFLKKRQELDEFLEKIFSKSPAKISIKTRIGKDSPDEFYELIKIFNKYPLEELIIHPRIQTDFYNNKPNMKVFKDALELSKSTVCYNGDIFQSNDYIKLIEEFSNLGVVMLGRGIISNPNIIKKINSNNVLEKEVLKKFHDAIYEEYQDILSGEKNVLFKMKEIWFYMIHLFKDSDKFAKKIRKANRLRDYEAIISALFGEFDLI
MGSDKIHHHHHHMLDQAERLRNMALKKNAGEEIKRPVIITVTSGKGGVGKSNFVVNLSITLQQMNKKVLIFDADVGMGNDDILLGCISKYSVFDVIYNNMKIEDAIVEGPFGVKLLPGGSGITKFKDITEDQINAFVKKLASIGNFDYIIMDTGAGVNRSVLGFISCCEELIILTTPEPTSLTDAYSLFKAVVHFKIKSYAKVVINRVVDNKEGLETYKKFQSVAKKFLKADTEFLGSISEDSRIVKAVRNQTPFVVENPNCYAAKDIQYIANKLMGTTTKDNGLGIEGLFKKLFKIFS
MGSDKIHHHHHHMLEHKIDFMVTLEVKEANANGDPLNGNMPRTDAKGYGVMSDVSIKRKIRNRLQDMGKSIFVQANERIEDDFRSLEKRFSQHFTAKTPDKEIEEKANALWFDVRAFGQVFTYLKKSIGVRGPVSISMAKSLEPIVISSLQITRSTNGMEAKNNSGRSSDTMGTKHFVDYGVYVLKGSINAYFAEKTGFSQEDAEAIKEVLVSLFENDASSARPEGSMRVCEVFWFTHSSKLGNVSSARVFDLLEYHQSIEEKSTYDAYQIHLNQEKLAKYEAKGLTLEILEGL
